Substitutions are numbered along the chain they refer to.
B1: 2835-28 IgG1 (antibody, V domains shown)
VH: EVQLVESGGGLVQPGGSLRLSCKASGYTFTDGSMHWVRQAPGKGLEWVAYINPYFGDTYYADSVKGRFTISADTSKNTAYLQMNSLRAEDTAVYYCARGWIDYWGQGTLVTVSS
VL: DIQMTQSPSSLSASVGDRVTITCKSNQNLLLSNGRTFLYWYQQKPGKAPKLLIYGTSYLYSGVPSRFSGSGSGTDFTLTISSLQPEDFATYYCFQANHLPWTFGQGTKVEIKR
B2: 35WYK-9 IgG1 (antibody, V domains shown)
VH: B1 VH with T30S, D31H, G32W, S33G, Y50G, N52Y, D57N, W100L, I101L
VL: DIQMTQSPSSLSASVGDRVTITCKSNQNLLLSNGRTFLHWYQQKPGKAPKLLIFDVSNLYSGAPSRFSGSGSGTDFTLTISSLQPDDFATYYCSQTSRFPWTFGQGTKVEIKR
B3: 29TYL#1 IgG1 (antibody, V domains shown)
VH: B1 VH with T30S, D31T, Y50H, Y54H, D57L, Y59L, R98G, G99S, W100G, I101F
VL: B1 VL with R35W, Y39N, Y54S, G55R, T56I, Y58D, N97S, H98D, L99F, W101Y
B4: 29TYL#10 IgG1 (antibody, V domains shown)
VH: B1 VH
VL: B1 VL
B5: 35WYK-16 IgG1 (antibody, V domains shown)
VH: EVQLVESGGGLVQPGGSLRLSCKASGYTFGTSWMHWVRQAPGKGLEWVAGITPYYGLTFYADSVKGRFTISADTSKNTAYLQMNSLRAEDTAVYYCARGNLDYWGQGTLVTVSS
VL: B1 VL with G55D, T56V, Y58D, A96G, H98N, L99F, W101Y
B6: 30CHS-12 IgG1 (antibody, V domains shown)
VH: EVQLVESGGGLVQPGGSLRLSCAASGFTISDYWIHWVRQAPGKGLEWVAGINPYYGVTVYADSVKGRFTISADTSKNTAYLQMNSLRAEDTAVYYCARGGVLDYWGQGTLVTVSS
VL: DIQMTQSPSSLSASVGDRVTITCKSNQNLLDSGNQGTFLNWYQQKPGKAPKLLIFGTSHLYSGVPSRFSGSGSGTDFTLTISSLQPEDFATYYCSQSTDLPFTFGQGTKVEIKR
B7: 30CHS-13 IgG1 (antibody, V domains shown)
VH: EVQLVESGGGLVQPGGSLRLSCKASGYTFGHYSMFWVRQAPGKGLEWVASIYPHYGHTYYADSVKGRFTISADTSKNTAYLQMNSLRAEDTAVYYCARGHWLDYWGQGTLVTVSS
VL: B6 VL with G36R, F38Y, F55Y, G56H, H59R, S97T, T98F, D99R, L100H, F102G
B8: 30CHS-41 IgG1 (antibody, V domains shown)
VH: B7 VH with G30T, Y32W, S33G, F35H, S50R, Y52N, H54Y, H57L, Y59H
VL: DIQMTQSPSSLSASVGDRVTITCKSNQNLLDSGHQRTYLNWYQQKPGKAPKLLIYHTSLLYSGVPSRFSGSGSGTDFTLTISSLQPEDFATYYCSQTFRHPGTFGQGTKVEIKR
B9: 31YCM#5 IgG1 (antibody, V domains shown)
VH: EVQLVESGGGLVQPGGSLRLSCKASGYTFGGSYMHWVRQAPGKGLEWVARIYPHYGYTYYADSVKGRFTISADTSKNTAYLQMNSLRAEDTAVYYCARGDDHFDYWGQGTLVTVSS
VL: DIQMTQSPSSLSASVGDRVTITCKSNQNLLDSHGWTYLHWYQQKPGKAPKLLIYDASNLYSGVPSRFSGSGSGTDFTLTISSLQPEDFATYYCSQSYRLPYTFGQGTKVEIKR
notes: also called 3 YCM #5
B10: 35CPT-9 IgG1 (antibody, V domains shown)
VH: EVQLVESGGGLVQPGGSLRLSCKASGYTFGDYGMHWVRQAPGKGLEWVAHIAPNDGITHYADSVKGRFTISADTSKNTAYLQMNSLRAEDTAVYYCARGYGWYDHVMDYWGQGTLVTVSS
VL: DIQMTQSPSSLSASVGGRVTITCKSNQNLLDSYGRTYLYWYQQKPGKAPKLLISGTSGLYSGVPSRFSGSGSGTDFTLTISSLQPEDFATYYCFQGYDYPFTFGQGTKVEIKR

Biological target: T1, HER2-ECD (recombinant extracellular domain of human epidermal growth factor receptor 2) (human, UniProt P04626 23-652)
T1 construct: extracellular domain; Recombinant HER2-ECD coated on ELISA plates
Assay: ELISA, IgG1 titrated on immobilized HER2-ECD

Row | Binder | EC50 [ng/mL]
1 | B1 | 3.9
2 | B2 | 5.7
3 | B3 | 4.1
4 | B4 | 3.8
5 | B5 | 6.2
6 | B6 | 41
7 | B7 | 41
8 | B8 | 5
9 | B9 | 6.3
10 | B10 | 31.7

Reference: US20190085323A1 (published 2019)
